Reference: article PMC11077089, “Molecular basis of A. thaliana KEOPS complex in biosynthesizing tRNA t6A”

T1: KAE1;BUD32;CGI121;PCC1 (Arabidopsis thaliana;Arabidopsis …, UniProt O49653;Q94K14;Q6NMZ4;Q8GWD7 1-353;1-226;1-172;1-96, |||)
T1 sequence 1: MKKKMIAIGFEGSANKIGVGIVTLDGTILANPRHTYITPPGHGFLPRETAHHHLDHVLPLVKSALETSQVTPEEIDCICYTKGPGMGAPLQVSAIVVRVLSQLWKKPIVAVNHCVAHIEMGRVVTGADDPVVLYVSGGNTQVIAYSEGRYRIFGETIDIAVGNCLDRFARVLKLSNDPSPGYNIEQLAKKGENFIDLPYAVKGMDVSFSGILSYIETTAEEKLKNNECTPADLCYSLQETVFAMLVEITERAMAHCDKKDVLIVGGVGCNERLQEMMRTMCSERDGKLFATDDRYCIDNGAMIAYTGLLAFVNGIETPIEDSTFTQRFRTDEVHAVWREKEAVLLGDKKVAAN
T1 sequence 2: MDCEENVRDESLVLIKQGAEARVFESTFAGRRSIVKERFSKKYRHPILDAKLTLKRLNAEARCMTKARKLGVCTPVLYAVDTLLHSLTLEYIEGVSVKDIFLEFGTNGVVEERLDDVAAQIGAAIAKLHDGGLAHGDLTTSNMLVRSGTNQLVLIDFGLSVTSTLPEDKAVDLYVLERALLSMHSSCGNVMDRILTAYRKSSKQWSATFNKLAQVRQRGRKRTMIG
T1 sequence 3: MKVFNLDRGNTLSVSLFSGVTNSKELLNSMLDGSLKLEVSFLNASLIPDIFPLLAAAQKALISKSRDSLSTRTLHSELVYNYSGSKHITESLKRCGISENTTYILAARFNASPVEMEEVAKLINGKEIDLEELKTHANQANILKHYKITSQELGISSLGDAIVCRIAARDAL
T1 sequence 4: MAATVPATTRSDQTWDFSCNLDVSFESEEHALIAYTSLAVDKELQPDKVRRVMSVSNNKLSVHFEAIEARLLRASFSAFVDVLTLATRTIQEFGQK

B1: tRNALysUUU (structured_RNA)
RNA: GCCGUCUUAGCUCAGCGGUAGAGCGCGUGGCUUUUAACCACGUGGCCGUGGGUUCGAUCCCCACAGACGGCGCCA
B2: tRNASerGCU (structured_RNA)
RNA: GUCGCUUUGGCCGAGUGGUUAAGGCGUGUUCCUGCUAAGUACAUGGGGUUUCCCCGCGAGAGUUCGAAUCUGUCAGGCGACGCCA
B3: tRNAArgUCU (structured_RNA)
RNA: GCGCCCGUGGCCUAAUGGAUAAGGCGUUUGACUUCUAAUCAAACGAUUGUGGGUUCGAGUCCCACCGGGCGUGCCA
B4: tRNAThrCGU (structured_RNA)
RNA: GCCUCCGUAGCAUAGUGGUAUUGCGUUCGCUUCGUAAGCGAAAGGUCGUGAGUUCGAUCCUCACCGUAGGCUCCA
B5: tRNAIleAAU (structured_RNA)
RNA: GGCCUAUUAGCUCAGUUGGUUAGAGCGUCGUGCUAAUAACGCGAAGGUCACAGGUUCGAUCCCUGUAUAGGCCACCA
B6: tRNAIleUAU (structured_RNA)
RNA: GCUCCCGUAGCUCAGUUGGUUAGAGCGUUGGUCUUAUGAGCCGAAGGUCGCGGGUUCGAGCCCCGCCGGAAGCACCA
B7: tRNAAsnGUU (structured_RNA)
RNA: GCUGGAAUAGCUCAGUAGGUUUAGAGCGUGUGGCUGUUAACCUCAAGGUCGGAGGUUCGACCCCUCCUUUCAGCGCCA

Target: T1, KAE1;BUD32;CGI121;PCC1
Assay: EMSA; 20 uM each; MST: 20 mM PBS pH 7.5, 300 mM NaCl, 0.05% Tween 20, 25 C, 50 nM RNA; EMSA: 20 mM Tris-HCl pH 7.5, 300 mM NaCl, 5 mM b-mercaptoethanol, 20% glycerol, agarose gel in Tris-glycine pH 8.0 (8.5 for FAM-RNA), 4 C
Settings: protein: recombinant;recombinant;recombinant;recombinant; tags: none (6His on partner PCC1);none (6His on partner CGI121);6His (C-term);6His (C-term); chain copies: 2;2;2;2; tRNA cloverleaf

Binding result, binds:
B1
B2
B3
B4
B5
B6
B7
